Source: the supplement of paper PMC10065799, “High-throughput profiling of sequence recognition by tyrosine kinases and SH2 domains using bacterial peptide display” (eLife, 2023)

Assays:
EPHB2 = EPHB2 (UniProt P29323); experiment: phosphorylation enrichment, bacterial display (enrichment ratio); higher = better substrate or ligand; peptides without Tyr show the background
Jak2 = Jak2 (UniProt O60674); experiment: as above
Hck = Hck (UniProt P08631); experiment: as above
Fyn = Fyn (UniProt P06241); experiment: as above
Sequence of Fyn (P06241 whole entry, looked up): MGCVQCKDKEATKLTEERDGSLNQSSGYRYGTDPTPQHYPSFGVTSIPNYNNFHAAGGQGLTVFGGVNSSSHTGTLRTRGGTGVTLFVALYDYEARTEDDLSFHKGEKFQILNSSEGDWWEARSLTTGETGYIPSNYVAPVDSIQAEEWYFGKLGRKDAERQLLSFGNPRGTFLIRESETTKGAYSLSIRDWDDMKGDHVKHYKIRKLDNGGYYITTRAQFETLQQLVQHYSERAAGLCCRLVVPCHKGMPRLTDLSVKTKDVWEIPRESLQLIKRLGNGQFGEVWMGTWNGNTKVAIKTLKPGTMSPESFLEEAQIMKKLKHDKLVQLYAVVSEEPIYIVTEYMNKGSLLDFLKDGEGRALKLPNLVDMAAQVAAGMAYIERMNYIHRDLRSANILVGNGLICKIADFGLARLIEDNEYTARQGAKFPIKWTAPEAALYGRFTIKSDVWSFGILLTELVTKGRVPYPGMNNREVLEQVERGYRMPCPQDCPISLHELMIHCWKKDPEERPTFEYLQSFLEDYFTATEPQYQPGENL

Fer (mouse) = experiment: as above
AncSZ = experiment: as above
FGFR3 = FGFR3 (UniProt P22607); experiment: as above
Sequence of FGFR3 (P22607 whole entry, looked up): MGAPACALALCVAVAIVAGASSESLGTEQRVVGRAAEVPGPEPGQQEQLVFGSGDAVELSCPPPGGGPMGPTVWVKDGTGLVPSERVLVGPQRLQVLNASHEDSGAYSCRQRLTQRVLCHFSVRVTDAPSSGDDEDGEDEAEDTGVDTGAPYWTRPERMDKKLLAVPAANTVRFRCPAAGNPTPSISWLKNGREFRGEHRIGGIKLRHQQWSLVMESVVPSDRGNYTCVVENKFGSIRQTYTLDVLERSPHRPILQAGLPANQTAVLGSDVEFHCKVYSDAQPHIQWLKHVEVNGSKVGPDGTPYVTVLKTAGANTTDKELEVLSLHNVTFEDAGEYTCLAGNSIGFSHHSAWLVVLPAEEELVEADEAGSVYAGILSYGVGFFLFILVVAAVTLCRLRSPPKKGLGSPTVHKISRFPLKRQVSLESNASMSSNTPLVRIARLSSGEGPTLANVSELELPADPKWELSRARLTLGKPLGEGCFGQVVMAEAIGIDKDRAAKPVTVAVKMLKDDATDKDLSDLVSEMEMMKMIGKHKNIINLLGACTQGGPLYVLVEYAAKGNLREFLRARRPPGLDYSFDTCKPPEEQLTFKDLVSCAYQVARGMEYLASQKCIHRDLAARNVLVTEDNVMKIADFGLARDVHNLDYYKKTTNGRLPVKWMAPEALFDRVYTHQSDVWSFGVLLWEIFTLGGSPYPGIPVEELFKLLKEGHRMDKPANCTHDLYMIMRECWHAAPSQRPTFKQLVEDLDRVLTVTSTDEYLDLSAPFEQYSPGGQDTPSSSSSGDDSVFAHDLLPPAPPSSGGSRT

MERTK = MERTK (UniProt Q12866); experiment: as above
Sequence of MERTK (Q12866 whole entry, looked up): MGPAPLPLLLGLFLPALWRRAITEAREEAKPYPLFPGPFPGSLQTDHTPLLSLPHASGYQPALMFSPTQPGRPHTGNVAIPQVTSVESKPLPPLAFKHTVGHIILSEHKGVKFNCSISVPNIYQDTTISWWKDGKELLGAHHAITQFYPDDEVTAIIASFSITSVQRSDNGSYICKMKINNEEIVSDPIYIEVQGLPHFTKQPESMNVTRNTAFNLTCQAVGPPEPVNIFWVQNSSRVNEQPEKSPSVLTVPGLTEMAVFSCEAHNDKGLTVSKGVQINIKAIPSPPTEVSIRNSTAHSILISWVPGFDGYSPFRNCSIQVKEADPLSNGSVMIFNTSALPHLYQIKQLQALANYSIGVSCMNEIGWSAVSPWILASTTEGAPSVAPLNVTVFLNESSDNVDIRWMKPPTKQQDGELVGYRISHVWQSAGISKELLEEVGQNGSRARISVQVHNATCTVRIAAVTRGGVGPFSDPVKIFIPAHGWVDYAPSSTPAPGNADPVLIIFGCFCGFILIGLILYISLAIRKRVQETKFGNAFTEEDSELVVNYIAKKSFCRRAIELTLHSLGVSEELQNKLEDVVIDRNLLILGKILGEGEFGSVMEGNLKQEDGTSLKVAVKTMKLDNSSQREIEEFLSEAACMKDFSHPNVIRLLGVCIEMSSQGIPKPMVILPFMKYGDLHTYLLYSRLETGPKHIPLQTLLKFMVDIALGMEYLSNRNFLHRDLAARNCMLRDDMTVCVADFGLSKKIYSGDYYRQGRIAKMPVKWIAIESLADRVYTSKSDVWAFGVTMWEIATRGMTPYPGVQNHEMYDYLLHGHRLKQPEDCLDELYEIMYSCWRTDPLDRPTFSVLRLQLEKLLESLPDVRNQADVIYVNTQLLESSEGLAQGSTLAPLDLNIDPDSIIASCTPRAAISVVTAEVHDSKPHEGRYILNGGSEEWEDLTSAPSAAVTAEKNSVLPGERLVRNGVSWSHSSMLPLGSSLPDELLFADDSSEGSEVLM

Fes = Fes (UniProt P07332); experiment: as above
Sequence of Fes (P07332 whole entry, looked up): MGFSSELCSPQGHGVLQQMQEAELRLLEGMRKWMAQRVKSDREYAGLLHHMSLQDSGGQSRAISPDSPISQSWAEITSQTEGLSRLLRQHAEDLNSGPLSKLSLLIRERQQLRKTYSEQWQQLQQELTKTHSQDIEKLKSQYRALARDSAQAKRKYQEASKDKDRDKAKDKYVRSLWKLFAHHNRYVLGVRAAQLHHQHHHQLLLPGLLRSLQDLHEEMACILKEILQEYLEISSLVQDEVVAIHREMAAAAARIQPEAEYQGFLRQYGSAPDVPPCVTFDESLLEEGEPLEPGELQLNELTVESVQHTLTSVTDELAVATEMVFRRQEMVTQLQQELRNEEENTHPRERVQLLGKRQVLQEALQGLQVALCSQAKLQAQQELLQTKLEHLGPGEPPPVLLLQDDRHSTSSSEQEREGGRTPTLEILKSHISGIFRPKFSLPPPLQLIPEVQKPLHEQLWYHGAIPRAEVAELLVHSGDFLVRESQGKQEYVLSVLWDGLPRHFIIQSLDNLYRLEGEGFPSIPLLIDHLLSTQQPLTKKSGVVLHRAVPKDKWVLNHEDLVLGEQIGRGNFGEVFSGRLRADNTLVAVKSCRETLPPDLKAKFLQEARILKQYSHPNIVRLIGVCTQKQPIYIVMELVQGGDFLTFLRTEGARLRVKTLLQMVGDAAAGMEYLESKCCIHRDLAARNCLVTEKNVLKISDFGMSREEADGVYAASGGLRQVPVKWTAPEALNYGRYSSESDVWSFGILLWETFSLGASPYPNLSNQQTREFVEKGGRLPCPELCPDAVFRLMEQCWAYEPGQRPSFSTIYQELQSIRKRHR

c-Abl (mouse) = experiment: as above
c-Src = experiment: as above
EPHB1 = EPHB1 (UniProt P54762); experiment: as above
FGFR1 = FGFR1 (UniProt P11362); experiment: as above
Sequence of FGFR1 (P11362 whole entry, looked up): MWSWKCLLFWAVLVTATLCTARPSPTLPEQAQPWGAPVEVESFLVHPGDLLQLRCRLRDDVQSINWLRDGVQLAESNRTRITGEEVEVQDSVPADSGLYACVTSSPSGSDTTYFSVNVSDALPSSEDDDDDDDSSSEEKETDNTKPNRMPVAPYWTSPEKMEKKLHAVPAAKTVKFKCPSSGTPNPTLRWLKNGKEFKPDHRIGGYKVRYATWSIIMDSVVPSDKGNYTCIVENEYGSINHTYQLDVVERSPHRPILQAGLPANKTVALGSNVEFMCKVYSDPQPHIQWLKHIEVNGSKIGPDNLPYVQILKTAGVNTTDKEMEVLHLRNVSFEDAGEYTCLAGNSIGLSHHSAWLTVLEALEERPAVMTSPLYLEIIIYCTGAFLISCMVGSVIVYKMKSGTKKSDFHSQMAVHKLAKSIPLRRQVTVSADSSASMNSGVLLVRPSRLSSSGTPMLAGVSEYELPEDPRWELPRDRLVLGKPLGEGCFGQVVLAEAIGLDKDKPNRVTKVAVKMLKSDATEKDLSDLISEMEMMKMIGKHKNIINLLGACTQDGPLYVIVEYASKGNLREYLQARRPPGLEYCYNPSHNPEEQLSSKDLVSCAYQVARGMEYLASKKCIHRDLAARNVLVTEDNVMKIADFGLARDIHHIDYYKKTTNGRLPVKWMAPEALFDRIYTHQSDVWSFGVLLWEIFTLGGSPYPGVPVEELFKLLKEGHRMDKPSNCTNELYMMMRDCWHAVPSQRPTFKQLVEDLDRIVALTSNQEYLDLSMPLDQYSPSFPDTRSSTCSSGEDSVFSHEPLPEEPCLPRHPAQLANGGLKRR

c-Src SH2 = experiment: SH2 binding enrichment of the phosphorylated peptide, bacterial display (enrichment ratio); higher = better substrate or ligand; peptides without Tyr show the background
SHP2-C SH2 = experiment: as above
Grb2 SH2 = Grb2 SH2 (UniProt P62993); experiment: as above
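For SH2 binding enrichment of the phosphorylated peptide, bacterial display in this document: peptide library displayed on the E. coli surface as eCPX fusions, selected cells deep-sequenced, score is each peptide's frequency after selection divided by its frequency in the input.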
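For phosphorylation enrichment, bacterial display in this document: 11-residue human phosphosite peptides and single-mutation variants displayed on the E. coli surface, counted by deep sequencing, each peptide's frequency after selection divided by its frequency in the unselected input library; frequency after pTyr selection over input frequency; kinase dosed for 20-30% of maximal phosphorylation in three min.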

Sequence of EPHB2 (P29323 whole entry, looked up): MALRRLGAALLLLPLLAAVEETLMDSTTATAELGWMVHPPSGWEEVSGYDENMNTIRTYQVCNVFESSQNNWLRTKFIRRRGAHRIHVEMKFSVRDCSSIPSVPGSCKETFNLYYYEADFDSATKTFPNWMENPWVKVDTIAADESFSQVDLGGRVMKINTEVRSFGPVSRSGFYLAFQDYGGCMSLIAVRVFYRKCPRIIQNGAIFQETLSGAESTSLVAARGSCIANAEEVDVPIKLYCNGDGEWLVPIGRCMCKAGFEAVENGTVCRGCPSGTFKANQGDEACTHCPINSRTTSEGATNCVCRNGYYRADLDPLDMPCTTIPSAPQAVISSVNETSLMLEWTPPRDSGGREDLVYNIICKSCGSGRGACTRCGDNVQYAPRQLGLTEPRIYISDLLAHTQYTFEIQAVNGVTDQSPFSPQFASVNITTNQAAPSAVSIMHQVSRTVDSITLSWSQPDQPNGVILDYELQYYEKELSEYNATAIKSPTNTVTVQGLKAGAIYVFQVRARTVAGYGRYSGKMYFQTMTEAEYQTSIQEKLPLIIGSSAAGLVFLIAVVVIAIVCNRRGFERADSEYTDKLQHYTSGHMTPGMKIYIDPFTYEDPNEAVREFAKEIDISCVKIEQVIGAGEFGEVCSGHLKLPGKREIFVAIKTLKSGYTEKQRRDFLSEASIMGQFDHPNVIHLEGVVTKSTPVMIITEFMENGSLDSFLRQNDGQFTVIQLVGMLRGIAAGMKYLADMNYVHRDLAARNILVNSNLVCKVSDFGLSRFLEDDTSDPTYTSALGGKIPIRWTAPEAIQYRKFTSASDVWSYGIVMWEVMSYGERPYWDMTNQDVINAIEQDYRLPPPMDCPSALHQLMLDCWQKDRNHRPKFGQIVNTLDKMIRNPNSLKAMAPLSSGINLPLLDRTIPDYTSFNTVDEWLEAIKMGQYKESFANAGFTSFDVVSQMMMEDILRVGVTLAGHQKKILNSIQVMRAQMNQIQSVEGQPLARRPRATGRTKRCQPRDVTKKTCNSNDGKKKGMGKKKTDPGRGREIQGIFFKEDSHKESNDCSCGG

SH2 binding enrichment (c-Src SH2)	SH2 binding enrichment (SHP2-C SH2)	SH2 binding enrichment (Grb2 SH2)	Sequence	phosphorylation enrichment (EPHB2)	phosphorylation enrichment (Jak2)	phosphorylation enrichment (Hck)	phosphorylation enrichment (Fyn)	phosphorylation enrichment (Fer (mouse))	phosphorylation enrichment (AncSZ)	phosphorylation enrichment (FGFR3)	phosphorylation enrichment (MERTK)	phosphorylation enrichment (Fes)	phosphorylation enrichment (c-Abl (mouse))	phosphorylation enrichment (c-Src)	phosphorylation enrichment (EPHB1)	phosphorylation enrichment (FGFR1)
0.454	0.528	0.693	VNFQPYRKHKF [TEX37_Y28_D24N_YF]	0.386	0.408	0.459	0.439	0.373	0.546	0.371	0.43	0.545	0.542	0.431	0.34	0.365
0.71	0.736	1.01	VNTMLYEKFTF [TEK_Y1108_T1106M_YF]	4.34	0.917	6.73	5.93	13.7	1.29	0.697	8.45	1.22	2.38	6.07	6.33	0.621
0.568	0.771	0.777	VNYQPYRKHKY [TEX37_Y28_D24N]	0.444	0.409	0.451	0.352	0.41	0.578	0.501	0.351	0.498	0.688	0.537	0.367	0.419
0.632	0.69	0.815	VQVAFYTVMMN [SPATA17_Y84_M86V_YF]	0.737	1.36	0.605	0.567	0.677	1.18	0.959	1.84	1.44	1.07	0.71	1.17	0.643
0.497	0.667	0.876	VSAPEYGPKLK [TBC1D14_Y46_L41V]	0.391	0.556	0.465	0.437	0.452	0.644	0.504	0.394	0.678	0.469	0.369	0.452	0.476
1.08	0.856	0.984	VVEDGYEFFAK [PPP1CB_Y254]	0.792	1.01	0.491	0.571	0.42	1.41	0.615	0.392	0.988	0.574	0.504	0.473	0.518
0.727	3.12	0.862	VYLGAYDRFLP [SLC22A5_Y486]	2.53	0.74	5.32	4.5	1.88	1.25	0.803	4.72	0.992	1.2	4.49	1.82	0.948
0.705	0.715	0.653	VYYGSYSCPYG [NKAP_Y104_R106C]	3.08	2.28	4.99	8.17	1.59	2.87	2.87	4.18	1.47	4.15	6.91	2.45	4.04
0.909	0.665	0.757	YAGRDYSLDEF [MYOF_Y1705_G1701A]	0.536	1.37	0.549	0.595	0.588	1.06	0.686	0.52	1.14	0.928	0.878	0.658	0.54
0.46	0.715	0.79	YRKNTYNVKST [SYNE2_Y575_I574T]	0.296	0.393	0.346	0.344	0.327	0.415	0.361	0.316	0.465	0.351	0.398	0.351	0.334
0.547	0.562	0.742	YRRITYYNWRH [PDE6B_Y556_H557Y]	0.457	0.47	0.46	0.483	0.442	0.64	0.598	0.512	0.549	0.539	0.47	0.417	0.497
1.44	0.753	0.832	YSIDYYRVGGH [NTRK2_Y707_T704I]	0.86	6.54	1.78	1.31	0.514	1.65	9.07	8.42	0.916	0.494	2.15	1.52	12.5

Continued, sequence first:

Sequence	SH2 binding enrichment (c-Src SH2)	SH2 binding enrichment (SHP2-C SH2)	SH2 binding enrichment (Grb2 SH2)	phosphorylation enrichment (EPHB2)	phosphorylation enrichment (Jak2)	phosphorylation enrichment (Hck)	phosphorylation enrichment (Fyn)	phosphorylation enrichment (Fer (mouse))	phosphorylation enrichment (AncSZ)	phosphorylation enrichment (FGFR3)	phosphorylation enrichment (MERTK)	phosphorylation enrichment (Fes)	phosphorylation enrichment (c-Abl (mouse))	phosphorylation enrichment (c-Src)	phosphorylation enrichment (EPHB1)	phosphorylation enrichment (FGFR1)
VISNAYVDLAP [HSD17B4_Y602]	3.79	1.21	0.858	0.557	0.707	0.471	0.428	0.516	0.675	0.653	0.589	0.777	0.475	0.435	0.436	0.89
VKKKLYEEIDQ [CYP17A1_Y329]	8.78	0.412	0.758	0.541	0.764	0.493	0.373	0.372	0.924	0.601	0.347	0.98	0.66	0.361	0.535	0.444
VLVSQYEKLDA [AMZ2_Y26_N30D]	7.26	0.602	0.896	0.606	0.738	0.484	0.489	0.47	0.808	0.589	0.462	0.826	0.586	0.539	0.561	0.366
VNFDFYTVNLG [GFPT1_Y367_D366Y_YF]	0.632	0.98	1.03	0.772	1.23	1.81	3.26	0.758	1.29	0.75	1.97	1.33	0.762	2.27	0.804	0.593
VPFARYLAMNK [HARS1_Y138]	0.576	0.561	0.739	0.43	0.361	0.381	0.382	0.334	0.432	0.442	0.376	0.516	0.328	0.362	0.379	0.388
VPLLEYFRDIF [CDAN1_Y712_YF]	1.13	1.38	1.44	0.715	1.41	0.566	0.543	0.584	1.42	0.943	0.56	1.6	1.06	0.52	0.523	0.687
VRFMAYTDETC [F8_Y450_F455C]	0.627	1.03	0.83	0.59	1.05	0.662	0.403	0.522	1.11	0.773	0.431	1.3	0.973	0.413	0.649	0.544
WHFTFYNELRV [ACTC1_Y93_H90Y_YF]	0.535	0.483	0.782	0.671	1.2	0.635	0.413	0.578	1.42	1.07	0.392	1.5	1.27	0.42	0.784	0.542
WQQQSYLDYGI [CTNNB1_Y30_S33Y]	0.511	0.648	0.818	1.07	0.842	0.615	0.604	0.453	1.11	0.827	0.426	1.03	0.711	0.743	0.808	0.91
WVFNHYRWIIW [BRCA2_Y2624_YF]	0.717	0.776	1.09	0.536	1.36	0.403	0.343	0.456	1.29	0.824	0.437	1.39	0.862	0.432	0.611	0.452
WVYNHYRWIIW [BRCA2_Y2624]	0.509	1.18	1.29	0.597	1.14	0.461	0.375	0.431	0.937	0.702	0.301	1.11	0.841	0.415	0.521	0.499
YALAEYTEVKT [ALDH1A3_Y497]	5.59	4.27	0.66	0.719	0.812	0.724	0.572	1.31	1.29	1.25	0.652	0.901	0.614	0.658	0.651	1.73
YCVDCYKNFVA [FHL1_Y213]	1.02	0.838	1.19	0.514	0.726	0.54	0.532	0.532	0.668	0.651	0.722	0.832	0.737	0.507	0.564	0.572
YGPPQYNIQYS [ERBB2IP_Y977]	0.322	0.986	0.728	0.592	0.655	0.72	0.549	0.672	0.989	0.557	0.602	0.802	0.858	0.617	0.412	0.462
YIPFRYPKEFQ [IDS_Y234_H229Y]	0.572	0.602	0.768	0.485	0.477	0.831	0.644	0.425	0.777	0.658	0.554	0.656	0.464	0.768	0.464	0.748
YIRKDYEACKA [BBS4_Y48]	0.796	1.11	0.982	0.398	0.407	0.404	0.445	0.403	0.553	0.38	0.398	0.464	0.374	0.386	0.469	0.466
YPPDGYSRHYE [CTNND1_Y213]	1.21	1.04	0.911	0.394	0.534	0.414	0.348	0.354	0.561	0.548	0.395	0.655	0.355	0.354	0.388	0.451
YSGDCYRIQGR [DDR2_Y741_Y740C]	0.615	0.506	0.798	0.514	0.735	0.564	0.475	0.49	0.818	0.715	1.25	0.83	0.552	0.374	0.468	0.483
YSTDYYRVGGH [NTRK2_Y707]	0.691	0.922	0.787	3.5	8.96	2.55	1.68	0.44	2.31	11.1	9.44	0.732	1.03	2.22	5.71	14.2
YVKEPYIQSRF [HIPK4_Y175]	0.769	0.721	1.11	0.465	0.507	0.416	0.469	0.411	0.628	0.528	0.53	0.77	0.457	0.329	0.406	0.491
